This note sets out measurements from article PMC2841617, “A Combination of Independent Transcriptional Regulators Shapes Bacterial Virulence Gene Expression during Infection”.

Data set [1] deals with CcpA;HPr-Ser46-P (Streptococcus pyogenes (group A Streptococcus; strain of the clone not stated here);Streptococcus pyogenes (group A Streptococcus)). As to the kind of experiment: fluorescence polarization. The note with it: CovR FP: 1 nM fluorescein DNA, 20 mM Tris pH 7.5, 50 mM NaCl, 2 mM DTT, 10 ug/mL poly(dI:dC), 25 C, CcpA FP as in ref 30 (buffer not given), with or without …. On the technique in general: Fluorescence polarisation rises when a labelled molecule tumbles more slowly, as on binding a larger partner.

The subject of data set [2] is CcpA (Streptococcus pyogenes (group A Streptococcus; strain of the clone not stated here)). Nature of the data set: fluorescence polarization. The note with it: CovR FP: 1 nM fluorescein DNA, 20 mM Tris pH 7.5, 50 mM NaCl, 2 mM DTT, 10 ug/mL poly(dI:dC), 25 C, CcpA FP as in ref 30 (buffer not given), with or without ….
The target in data set [3] is CovR-P (phosphorylated) (Streptococcus pyogenes MGAS5005 (serotype M1)) (UniProt O87527). Nature of the data set: fluorescence polarization. The note with it: CovR FP: 1 nM fluorescein DNA, 20 mM Tris pH 7.5, 50 mM NaCl, 2 mM DTT, 10 ug/mL poly(dI:dC), 25 C; CcpA FP as in ref 30 (buffer not given), with or without ….
In data set [4] the target is CovR (unphosphorylated) (Streptococcus pyogenes MGAS5005 (serotype M1)) (UniProt O87527). Nature of the data set: fluorescence polarization. As to conditions: CovR FP: 1 nM fluorescein DNA, 20 mM Tris pH 7.5, 50 mM NaCl, 2 mM DTT, 10 ug/mL poly(dI:dC), 25 C; CcpA FP as in ref 30 (buffer not given), with or without ….
A further data set deals with CovR (unphosphorylated) (Streptococcus pyogenes MGAS5005 …, UniProt O87527 1-228). As to the kind of experiment: fluorescence polarization; unphosphorylated; CovR FP: 1 nM fluorescein DNA, 20 mM Tris pH 7.5, 50 mM NaCl, 2 mM DTT, 10 ug/mL poly(dI:dC), 25 C; CcpA FP as in ref 30 (buffer not given), with or without 10. As to conditions: protein: recombinant, chain copies: 2, label: fluorescein.

On to amyA cre, for which the results for the Kd (nM (unit implied)) in data set [1] (10 uM HPr-Ser46-P) and in data set [2] (no HPr-Ser46-P) were 32 and 160, respectively.

Regarding arcA cre, the dissociation constant (Kd) in data set [1] (10 uM HPr-Ser46-P) came to 18 nM; in data set [2] (no HPr-Ser46-P) it was 219 nM.

For the molecule hasA promoter probe, the Kd in data set [3] is 640 nM; in data set [4], 2200 nM.

In the case of nga/slo cre, the results for the Kd in data set [1] and in data set [2] were 42 nM and 674 nM, respectively.

As to speB cre, the Kd in data set [1] came out at 5 nM; in data set [2], 100 nM.

Turning to spyCEP cre, the Kd in data set [1] is 33 nM; in data set [2], 257 nM.

Take CAACCAAACTCTCATTAGAAACCCCCCTTTCTAATGAGAGTTTGGTTG (structured_DNA) [amyA promoter probe]: the dissociation constant Kd with CovR (unphosphorylated) (hairpin (21 bp stem, C6 loop)) worked out at 245 nM.

Take ACAAAAACCAATTAGAAAGACCCCCTCTTTCTAATTGGTTTTTGT (structured_DNA) [arcA promoter probe]: the Kd with CovR (unphosphorylated) (hairpin (20 bp stem, C5 loop)) was 637 nM.

A word on the Kd: it is a measure of binding affinity in units of concentration.
